Data published in US12208130B2, “Treatment of women affected with polycystic ovary syndrome” (INSTITUT NATIONAL DE LA SANTE ET DE LA RECHERCHE MEDICALE …, priority 2017, dated 2025).
Where a SMILES comes first, the peptide text is derived from it. [ ]: non-standard residue; d: D form. dPhe(4-Cl) = N[C@H](Cc1ccc(Cl)cc1)C(=O)O; d2Nal = N[C@H](Cc1ccc2ccccc2c1)C(=O)O; dCit = NC(=O)NCCC[C@@H](N)C(=O)O; d3Pal = N[C@H](Cc1cccnc1)C(=O)O

System: C57BL6/J (B6) dams and their female offspring
Assay: Plasma testosterone, LH and LH pulsatility in adult diestrus female offspring
Type: in vivo, mouse
Protocol: FIGS. 3A-3J-4. Prenatal AMH treatment leads to hyperandrogenism and elevation in LH secretion/pulsatility. (FIG. 3A) Anogenital distance (AGD) was measured over post-natal days (P) 30, 35, 40, 50, and 60 in adult female control (n=6-14), PAMH (n=11-19), PAMH+GnRH antag (n=10), and GnRH antag (n=4) mice. […] One-way ANOVA and Tukey's multiple comparison post hoc test, F(19-183)=130.1, ***P<0.0001 among treatment groups and ages (P30, F(3, 43)=84.48, *P<0.05, ***P<0.0001; P35, F(3, 43)=116.9, *P<0.05, ***P<0.0001; P40, F(3, 43)=207.5, *P<0.05, ***P<0.0001; P50, F(3,27)=72.69, ***P<0.0001; P60, F(3,27)=110.5, ***P<0.0001). Bars from left to right in each group: Control, PAMH, PAMH+GnRH antag, GnRH antag. (FIG. 3B) Plasma testosterone was measured in adult females (P60) in diestrus. […] One-way ANOVA and Tukey's multiple comparison post hoc test, F(2,12)=28.67, ***P<0.0001. Bars from left to right: Control, PAMH, PAMH+GnRH antag. (FIG. 3C) Plasma LH was measured in adult females (P60) in diestrus. […] One-way ANOVA and Tukey's multiple comparison post hoc test, F(2,24)=257.3, *P<0.05, ***P<0.0001. Bars from left to right: Control, PAMH,
PAMH+GnRH antag. (FIG. 3D) Schematic representation of tail-tip blood sampling in adult diestrus female mice (3-4 months old). (FIG. 3E) Tail blood was collected every 10 min for 2 h and LH measured from 10 a.m-12 p.m in adult (P60) diestrus females (Control, n=8; PAMH, n=10; PAMH+GnRH antag, n=9; One-way ANOVA and Tukey's multiple comparison post hoc test, F(2,24)=57.06, *P<0.05, ***P<0.0001). Bars from left to right: Control, PAMH, PAMH+GnRH antag. (FIGS. 2F-1, 2F-2, 2F-3) Representative graphs for LH pulsatility over 2-hr in one female adult (P60) mouse of each treatment. Asterisks in (FIG. 3F) indicate the number of LH pulses/2-hr. (FIG. 3G) Mean circulating testosterone and LH levels were analyzed in pregnant PBS-treated (n=4) and AMH-treated (n=4) dams at embryonic day (E) 19.5 of gestation. […] (FIG. 3H) Relative mRNA expression of placental Cyp191a (aromatase) in control (n=4) and AMH (n=4)-treated pregnant animals at E19.5. Cyp191a expression in the placenta is higher in AMH-treated pregnant dams as compared to control-treated pregnant dams (Unpaired Student's t-test, t(6)=5.414, **P<0.005). Values are expressed as relative to the mean of each treatment. All values are expressed as mean±s.e.m. (FIGS. 3I-1, 3I-2, 3I-3, 3I-4) Dams were injected from E16.5 to E18.5 with either PBS (vehicle, n=9-11), AMH (n=8-10), AMH+GnRH antag (n=5) and trunk blood was collected at E19.5 for hormonal measurements by ELISA. Data were combined from at least two independent experiments. In FIGS. 3I-1, 3I-2, 3I-3, 3I-4: left bar: vehicle; middle bar: AMH; right bar: AMH+GnRH antagonist. […]

[1] = dams i.p. 0.12 mg/Kg/d E16.5-E18.5, adult female offspring in diestrus vs control

Molecule: CC(=O)N[C@H](Cc1ccc2ccccc2c1)C(=O)N[C@H](Cc1ccc(Cl)cc1)C(=O)N[C@H](Cc1cccnc1)C(=O)N[C@@H](CO)C(=O)N[C@@H](Cc1ccc(O)cc1)C(=O)N[C@H](CCCNC(N)=O)C(=O)N[C@@H](CC(C)C)C(=O)N[C@@H](CCCNC(=N)N)C(=O)N1CCC[C@H]1C(=O)N[C@H](C)C(N)=O [Cetrorelix acetate, Ac-D-2Nal-D-Phe(4-Cl)-D-3Pal-Ser-Tyr-D-Cit-Leu-Arg-Pro-D-Ala-NH2] (Ac-[d2Nal][dPhe(4-Cl)][d3Pal]SY[dCit]LRP[dA]-NH2)
- PCOS-like neuroendocrine traits in the offspring (prenatal co-treatment of AMH with the GnRH antagonist): prevented the appearance

B1: proAMH: AMH proprotein (Origene Technologies, Cat # TP308397), injected prenatally 0.12 mg/Kg/d (protein, UniProt P03971 25-560, looked up)
pro-form: LRAEEPAVGTSGLIFREDLDWPPGSPQEPLCLVALGGDSNGSSSPLRVVGALSAYEQAFLGAVQRARWGPRDLATFGVCNTGDRQAALPSLRRLGAWLRDPGGQRLVVLHLEEVTWEPTPSLRFQEPPPGGAGPPELALLVLYPGPGPEVTVTRAGLPGAQSLCPSRDTRYLVLAVDRPAGAWRGSGLALTLQPRGEDSRLSTARLQALLFGDDHRCFTRMTPALLLLPRSEPAPLPAHGQLDTVPFPPPRPSAELEESPPSADPFLETLTRLVRALRVPPARASAPRLALDPDALAGFPQGLVNLSDPAALERLLDGEEPLLLLLRPTAATTGDPAPLHDPTSAPWATALARRVAAELQAAAAELRSLPGLPPATAPLLARLLALCPGGPGGLGDPLRALLLLKALQGLRVEWRGRDPRGPGRAQRSAGATAADGPCALRELSVDLRAERSVLIPETYQANNCQGVCGWPQSDRNPRYGNHVVLLLKMQVRGAALARPPCCVPTAYAGKLLISLSEERISAHHVPNMVATECGCR
modifications: pro-form
notes: AMH proprotein (Origene Technologies, Cat # TP308397), injected prenatally 0.12 mg/Kg/d
- plasma LH [1]: increased
- plasma testosterone [1]: increased
- LH pulse frequency / pulsatility (dams i.p. 0.12 mg/Kg/d E16.5-E18.5, adult female offspring in diestrus, tail blood every 10 min for 2 h): constitutively high LH pulsatility
